Assay results published in article PMC10992996, “Human CRB1 and CRB2 form homo- and heteromeric protein complexes in the retina” (Life Science Alliance, 2024).

Target: T1, CRB1-FLAG p.N1317H (human, UniProt P82279 26-1406, p.N1317H)
T1 construct: Crumbs homolog 1, canonical form, human, cDNA NM_202153 as printed, with a patient missense mutation; Made by site-directed mutagenesis of m1; also called CRB1 p.N1317H; p.C1317H; source: HEK293T, transfected, in lysate; not shown: Strep-Strep-FLAG, N-terminal, kept
T1 sequence (looked up): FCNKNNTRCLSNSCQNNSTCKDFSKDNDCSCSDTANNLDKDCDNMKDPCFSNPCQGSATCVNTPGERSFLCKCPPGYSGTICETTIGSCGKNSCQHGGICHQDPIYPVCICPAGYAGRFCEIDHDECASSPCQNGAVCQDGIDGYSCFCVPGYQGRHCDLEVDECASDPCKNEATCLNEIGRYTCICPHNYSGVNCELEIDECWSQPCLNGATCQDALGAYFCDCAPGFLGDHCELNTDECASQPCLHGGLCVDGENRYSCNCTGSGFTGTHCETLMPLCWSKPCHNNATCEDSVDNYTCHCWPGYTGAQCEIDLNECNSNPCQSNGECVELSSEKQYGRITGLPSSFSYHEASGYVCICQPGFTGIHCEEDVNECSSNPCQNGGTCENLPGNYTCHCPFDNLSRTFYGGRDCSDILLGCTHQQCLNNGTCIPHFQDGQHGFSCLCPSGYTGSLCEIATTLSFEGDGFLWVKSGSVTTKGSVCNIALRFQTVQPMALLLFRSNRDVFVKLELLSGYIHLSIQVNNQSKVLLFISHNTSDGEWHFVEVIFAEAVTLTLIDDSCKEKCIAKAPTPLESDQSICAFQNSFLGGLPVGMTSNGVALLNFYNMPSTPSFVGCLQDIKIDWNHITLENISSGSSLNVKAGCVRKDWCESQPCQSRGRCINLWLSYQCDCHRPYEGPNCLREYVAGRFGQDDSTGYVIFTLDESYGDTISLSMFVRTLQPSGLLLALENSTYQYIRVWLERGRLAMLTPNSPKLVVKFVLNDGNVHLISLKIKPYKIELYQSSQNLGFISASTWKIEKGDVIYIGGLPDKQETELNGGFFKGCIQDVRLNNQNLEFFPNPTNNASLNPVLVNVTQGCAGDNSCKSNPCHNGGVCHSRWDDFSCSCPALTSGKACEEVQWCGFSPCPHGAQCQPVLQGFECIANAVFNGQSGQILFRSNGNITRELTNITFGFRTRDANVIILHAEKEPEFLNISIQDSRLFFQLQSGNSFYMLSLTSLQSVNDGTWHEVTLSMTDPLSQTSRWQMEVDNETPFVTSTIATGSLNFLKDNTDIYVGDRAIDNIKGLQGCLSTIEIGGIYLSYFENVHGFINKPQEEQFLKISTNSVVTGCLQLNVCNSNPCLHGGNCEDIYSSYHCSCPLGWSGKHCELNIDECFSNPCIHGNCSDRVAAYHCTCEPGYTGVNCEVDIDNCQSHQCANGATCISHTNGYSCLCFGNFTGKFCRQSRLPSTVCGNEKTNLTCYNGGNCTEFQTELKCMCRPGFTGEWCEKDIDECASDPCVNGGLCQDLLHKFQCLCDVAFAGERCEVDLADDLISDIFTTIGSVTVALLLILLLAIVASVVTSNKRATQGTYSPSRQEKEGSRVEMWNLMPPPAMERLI
Experiment: co-IP; HEK293T cells co-transfected pairwise with a FLAG and an HA construct, 48 h; lysis in TBS (30 mM Tris-HCl pH 7.4, 150 mM NaCl) with 0.5% Nonidet P40; FLAG-IP on ANTI-FLAG M2 Affinity Gel 60-90 min at 4°C, elution with FLAG peptide; Western blot with HA and FLAG antibodies; for mutants HA/FLAG signal in eluates relative to WT, three biological replicates
Details: partners not purified

B1: Human canonical CRB2 (Crumbs homolog 2) (natural protein)
chain: not shown
notes: Crumbs homolog 2, human, cDNA NM_173689; Stood as bait (FLAG copy) and as prey (HA copy) in the pairwise co-IP matrix; each copy carries only one of the two tags; The FLAG copy was the bait of the mass spectrometry pull-downs; also called CRB2-FLAG; CRB2-HA; source: HEK293T, transfected, in lysate (co-IP); HEK293T, transfected, FLAG-IP on beads, washed and purified with 0.01% SDS (retina …)
- percent reduction of the interaction relative to CRB1 WT: 24%
